Data taken from paper PMC10683072 (2023).

B1: PDZ3 PDZ3 (protein)
chain: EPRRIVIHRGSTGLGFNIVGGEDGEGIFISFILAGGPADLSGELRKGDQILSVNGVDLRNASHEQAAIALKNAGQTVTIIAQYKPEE
B2: 2xPDZ3 (two tandem repeats of PDZ3) PDZ3 (protein)
chain: B1 chain

Legend:
[1] = biological target: T1, KQTSV peptide; assay: diffusion lag time measurement with labeled peptide (Figure S12)
T1 chain: KQTSV

[2] = biological target: T2, KQTSV peptide (tandem dimer of PDZ3); assay: as above
T2 chain: KQTSV

| Binder | Kd [1] | Kd [2] |
| --- | --- | --- |
| B1 | 670 nM | – |
| B2 | – | 680 nM |
